Patent US20150299276A1

Assays:
[1] = molecular target: rat α6/α3β4 nAChR (rat), P12392; assay: cell-based or functional assay
[2] = molecular target: rat α6/α3β2β3 nAChR (rat), P12390; assay: cell-based or functional assay

Binder | IC50 (half-blocking dose) of ACh-gated current, Xenopus oocytes [1] [nM] | IC50 (half-blocking dose) of ACh-gated current, Xenopus oocytes [2] [nM] | Ratio (IC50 of TxIB(G) / IC50 of TxIB) [2]
GCCSDPPCRNKHPDLC (modifications not checked) [α-conotoxin TxIB/Txd4] | > 10000 | 28.4 | 1
GCCSDPPCRNKHPDLCG (modifications not checked) [α-conotoxin TxIB/Txd4(G)] | > 10000 | 247 | 8.7
